This data set addresses T1, GhGT26 (GST fusion) (Gossypium hirsutum, UniProt A0A8J9W0A6 1-391).
T1 sequence: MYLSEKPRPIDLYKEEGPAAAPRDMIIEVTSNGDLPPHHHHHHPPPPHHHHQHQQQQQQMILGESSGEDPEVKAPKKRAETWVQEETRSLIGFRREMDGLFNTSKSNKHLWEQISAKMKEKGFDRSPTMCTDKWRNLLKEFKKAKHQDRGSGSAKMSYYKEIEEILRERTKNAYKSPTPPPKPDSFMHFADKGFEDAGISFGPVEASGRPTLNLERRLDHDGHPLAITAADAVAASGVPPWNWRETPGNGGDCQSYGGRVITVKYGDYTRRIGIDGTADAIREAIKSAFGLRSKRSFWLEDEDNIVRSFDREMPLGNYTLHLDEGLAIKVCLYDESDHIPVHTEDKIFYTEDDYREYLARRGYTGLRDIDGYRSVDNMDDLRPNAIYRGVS
The experiment in a line: EMSA; signal dramatically reduced by unlabeled competitor; Oligos annealed in 50 mM NaCl (70 °C 5 min, then room temperature); EMSA binding buffer, pH and temperature not given (as in ref. 48). Particulars: protein: recombinant; tags: GST (pGEX6p-1); label: digoxigenin; blunt (reverse complement stated). In general terms: Mobility shift assays separate free from complexed probe on a gel.

B1: MRE3 (dsDNA)
DNA 1: TCTAACCTACTAACCTACTAACCTACCA
DNA 2: TGGTAGGTTAGTAGGTTAGTAGGTTAGA
As for B1, the binding result is reported as “binds”.

B2: Site1-type (GT-3a) (dsDNA)
DNA 1: GCGTTACCGTTACCGTTACCAA
DNA 2: TTGGTAACGGTAACGGTAACGC
Take B2: the binding result is given as “binds”.

B3: MRE4 (dsDNA)
DNA 1: TATCTCACCTCTCACCTCTCACCGT
DNA 2: ACGGTGAGAGGTGAGAGGTGAGATA
B3: the binding result is reported as “binds”.

These data come from publication PMC9610538, “Trihelix Transcriptional Factor GhGT26 of Cotton Enhances Salinity Tolerance in Arabidopsis”.
